In PMC8464984, “AimR Adopts Preexisting Dimer Conformations for Specific Target Recognition in Lysis-Lysogeny Decisions of Bacillus Phage phi3T” (Biomolecules, 2021):
Numbering of substitutions follows the chain as printed. Numbers in names are those of the source.

T1: phAimR D174C-labeled (Bacillus phage phi3T, UniProt P0DOE3 1-378, C6S;C74S;C99S;C136S;C223S;C267S;D174C)
T1 sequence: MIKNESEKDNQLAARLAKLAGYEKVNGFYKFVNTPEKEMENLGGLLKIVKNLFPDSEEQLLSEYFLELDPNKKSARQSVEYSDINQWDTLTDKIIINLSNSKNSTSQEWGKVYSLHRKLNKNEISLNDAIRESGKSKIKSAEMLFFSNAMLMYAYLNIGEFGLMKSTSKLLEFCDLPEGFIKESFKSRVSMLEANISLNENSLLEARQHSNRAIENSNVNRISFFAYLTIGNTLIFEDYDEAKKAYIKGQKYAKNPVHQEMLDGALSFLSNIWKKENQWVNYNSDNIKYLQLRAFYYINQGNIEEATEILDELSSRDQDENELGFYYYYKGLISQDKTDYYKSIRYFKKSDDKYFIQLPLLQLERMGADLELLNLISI

T2: phAimR N103C-labeled (Bacillus phage phi3T, UniProt P0DOE3 1-378, C6S;C74S;C99S;C136S;C223S;C267S;N103C)
T2 sequence: T1 sequence with N103C, C174D

B1: AimR from Phi3T phage (phAimR), wild type (natural protein, Bacillus phage phi3T)
chain: T1 sequence with S6C, S74C, S99C, S136C, C174D, S223C, S267C
notes: AimR transcription factor of Bacillus phage phi3T, codon-optimized cDNA (GenBank KY030782.1) in pET15b; theoretical mass printed as 44.3 kDa; 6x His tag removed with drICE protease; Dimer by SLS, AUC and SAXS; also called phi3T AimR; wild-type phAimR; source: E. coli BL21 (DE3), purified (Ni-NTA, anion exchange, size-exclusion chromatography); not shown: His6, N-terminal, cleaved
B2: phAimR carrying two amino acids substitutions (phAimR^Y341A/E371A) (natural protein, Bacillus phage phi3T)
chain: T1 sequence with S6C, S74C, S99C, S136C, C174D, S223C, S267C, Y341A, E371A
notes: AimR of Bacillus phage phi3T (GenBank KY030782.1) with Y341A and E371A; also called phAim^Y341A/E371A; phAimR^Y341/E371A; source: E. coli BL21 (DE3), purified, prepared in the same way as the wild-type protein; not shown: His6, N-terminal, cleaved
B3: phAimR^C6S/C74S/C99S/C136S/C223S/C267S/N103C, labelled with Alexa488 and Cy5 (natural protein, Bacillus phage phi3T)
chain: T1 sequence with N103C, C174D
modifications: Alexa Fluor 488 C5 maleimide or Cy5 maleimide on the cysteine at N103C
notes: AimR of Bacillus phage phi3T (GenBank KY030782.1), six solvent-exposed cysteines changed to serine and N103C added for labelling; One dye per chain; the doubly labelled species is a dimer with Alexa488 on one subunit and Cy5 on the other; also called phAimR (N103C labeling site); N103C dye-labeling; source: E. coli BL21 (DE3), purified in the same way as the wild-type phAimR, dye-conjugated, …
B4: phAimR^C6S/C74S/C99S/C136S/C223S/C267S/D174C, labelled with Alexa488 and Cy5 (natural protein, Bacillus phage phi3T)
chain: T1 sequence
modifications: Alexa Fluor 488 C5 maleimide or Cy5 maleimide on the cysteine at D174C
notes: AimR of Bacillus phage phi3T (GenBank KY030782.1), six solvent-exposed cysteines changed to serine and D174C added for labelling; One dye per chain; the doubly labelled species is a dimer with Alexa488 on one subunit and Cy5 on the other; also called phAimR (D174C labeling site); D174C dye-labeling; source: E. coli BL21 (DE3), purified in the same way as the wild-type phAimR, dye-conjugated, …
B5: phi3T arbitrium peptide (SAIRGA) (peptide)
peptide: SAIRGA
notes: mature arbitrium peptide processed from the AimP pro-peptide (43 amino acids) of Bacillus phage phi3T; also called SAIRGA peptide; phi3T-derived peptide
B6: phi3T target DNA (smFRET titration) (dsDNA)
DNA 1: GAAATGTCCAGAAATTCAAAAATCAAAAAATAAGAACATGG
DNA 2: CCATGTTCTTATTTTTTGATTTTTGAATTTCTGGACATTTC
B7: phAimR: AimR from Phi3T phage (GenBank: KY030782.1), transcription factor and arbitrium peptide receptor (protein)
chain: T1 sequence with S6C, S74C, S99C, S136C, C174D, S223C, S267C
modifications: left off: His6, N-terminal, cleaved
notes: AimR from Phi3T phage (GenBank: KY030782.1), transcription factor and arbitrium peptide receptor

Columns and labels:
[1] = target: the molecule itself; experiment: SEC; Superdex 200 Increase 10/300 GL; 8.2 uM protein without peptide; 25 mM Tris-HCl pH 8.0, 300 mM NaCl
[2] = target: the molecule itself; experiment: SEC-MALS; static light scattering; 1.6 mg/mL protein without peptide; Superdex 200 Increase 10/300 with HELEOS multi-angle light scattering; 25 mM Tris-HCl pH 8.0, 300 mM NaCl
[3] = target: the molecule itself; experiment: SAXS; 100 uM protein without peptide; room temperature; 25 mM Tris-HCl pH 8.0, 300 mM NaCl
[4] = target: the molecule itself; experiment: FRET or BRET; smFRET in solution, FRET between the two subunits (one dye site per chain), no ligand; about 100 pM doubly labelled phAimR; 25 C, 20 mM Tris-HCl pH 7.5, 100 mM NaCl, 0.005% Tween 20
[5] = target: B3; experiment: FRET or BRET; smFRET in solution; about 100 pM doubly labelled (Alexa488/Cy5) phAimR, peptide titrated; KD from the population of the enriched FRET state; 25 C, 20 mM Tris-HCl pH 7.5, 100 mM NaCl, 0.005% Tween 20, 1 mM L-ascorbic acid, 1 mM methylviologen; conditions: both partners purified
[6] = target: B4; experiment: as above; conditions: both partners purified
[7] = target: T1, phAimR D174C-labeled; experiment: smFRET titration; no peptide; EMSA: 25 mM Tris-HCl pH 8.0, 150 mM NaCl, 5 mM MgCl2, 5 mM DTT, 0.1 mg/mL BSA, 10% glycerol, room temperature 10 min, 5 nM probe, protein 0-1 (printed 'M', probably uM); smFRET titration buffer not in the material; conditions: protein: recombinant; tags: N-terminal 6xHis removed with drICE protease; Alexa488/Cy5 at C174; chain copies: 2; blunt
[8] = target: T2, phAimR N103C-labeled; experiment: as above; conditions: protein: recombinant; tags: N-terminal 6xHis removed with drICE protease; Alexa488/Cy5 maleimide at C103; chain copies: 2; blunt
[9] = target: T3, phAimR dimer (N103C-labelled) (Bacillus phage phi3T, UniProt P0DOE3, C136S/C223S/C267S/C6S/C74S/C99S/N103C); experiment: smFRET titration of phAimR dimer labelled at N103C (Alexa488/Cy5); assay type: binding; conditions: no ligand
T3 construct: 6xHis (N, cleaved yes); made in house; host or cells: Escherichia coli BL21 (DE3)
T3 sequence (P0DOE3 whole entry C6S/C74S/C99S/N103C/C136S/C223S/C267S): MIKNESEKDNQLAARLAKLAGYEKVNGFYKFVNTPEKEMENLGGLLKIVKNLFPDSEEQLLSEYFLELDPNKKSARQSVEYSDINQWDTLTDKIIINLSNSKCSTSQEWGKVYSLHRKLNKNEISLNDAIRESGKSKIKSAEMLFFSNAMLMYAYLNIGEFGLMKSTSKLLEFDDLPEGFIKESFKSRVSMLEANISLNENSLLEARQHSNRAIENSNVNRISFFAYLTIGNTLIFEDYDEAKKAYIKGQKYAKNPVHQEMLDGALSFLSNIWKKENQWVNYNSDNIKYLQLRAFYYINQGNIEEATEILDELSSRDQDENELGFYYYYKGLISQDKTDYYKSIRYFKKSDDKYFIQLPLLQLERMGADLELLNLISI
Method: (§1) The cysteine substitutions of phAimR (phAimR^C6S/C74S/C99S/C136S/C223S/C267S/N103C or phAimR^C6S/C74S/ C99S/C136S/C223S/C267S/D174C) were generated with a standard PCR-based strategy. Proteins were prepared in the same way as the wild-type phAimR. Alexa Fluor 488 C5 maleimide (Alexa488, A10254, Thermo Fisher, Shanghai, China) and Cy5 maleimide (Cy5, PA15131, GE Healthcare, Shanghai, China) were used as fluorescence donor and acceptor, respectively. A desalting column (HiPrep 26/10, GE Healthcare, Shanghai, China) was used to exchange the protein buffer into the conjugation buffer containing 20 mM phosphate (pH 7.4) and 100 mM NaCl. The protein fraction was collected in premixed Alexa488 and Cy5 dyes. The conjugation of phAimR was performed with Alexa488 and Cy5 at a molar ratio of 1:4:4. Conjugation reaction was performed for 3 h at room temperature in the dark, and the mixture was then purified using a Source-Q column (GE Healthcare, Shanghai, China). The fractions of double-labeled protein that had absorption at 280 nm, 493 nm and 640 nm were collected for smFRET data collection.
(§2) The laser confocal fluorescence microscope MicroTime 200 (PicoQuant, Berlin, Germany) was used for single-molecule imaging, and a pulsed interleaved excitation (PIE) scheme was used with two SPCM-AQRH detectors (Excelitas, Waltham, MA, USA) for recording fluorescence time traces at two different wavelengths. Two picosecond-pulsed diode laser heads (LDH-P-C-485 and LDH-P-C-640; PicoQuant, Berlin, Germany) were driven by a PDL 828 Sepia II driver (PicoQuant) at a repetition rate of 40 MHz, which allowed interleaved excitations for Alexa488 and Cy5. Each laser was coupled to the inverted microscope IX 73 (Olympus, Beijing, China) through a single-mode fiber, and was reflected by a dichroic mirror through a water-immersion objective (UPLSAPO 60×, N.A. 1.20). The protein sample was loaded onto a hybridization chamber (Thermo Fisher) glued to a glass coverslip (Thermo Fisher, Shanghai, China). The laser confocal point was set to about 50 μm above the coverslip. The excitation power at the back of the objective was about 100 μW for the 485 nm laser and about 35 μW for the 640 nm laser, as estimated with a power meter (PM20-FC; Thorlabs, Shanghai, China). Focused to a 100 μm pinhole, the fluorescence emission from the excited protein molecule was collected with the same objective. The donor and acceptor emissions were separated with a dichroic mirror (T635lpxr; Chroma, Xiamen, China). The donor emission was filtered with a 520/35 BP band pass, and the acceptor emission was filtered with a 690/70 BP band pass, before being focused onto the two SPCM-AQRH detectors.
(§3) The fluorescence outputs were recorded with a TimeHarp 260 PCI board (PicoQuant, Berlin, Germany) built into a PC workstation, and the data were stored in the time-tagged time-resolved module (PicoQuant, Berlin, Germany). The photon counts including fDex/Dem, fDex/Aem and fAex/Aem were obtained by binning the photons in 1 ms bins using SymPhoTime64 software (PicoQuant, Berlin, Germany). […] With all three fluorescence time traces recorded, the signals from the donor-only or acceptor-only protein molecules were filtered out, so as to ensure that an fDex/Aem photon only arises from a doubly labeled protein. […]

[10] = target: T4, phAimR dimer (D174C-labelled) (Bacillus phage phi3T, UniProt P0DOE3, C136S/C223S/C267S/C6S/C74S/C99S/D174C); experiment: smFRET titration of phAimR dimer labelled at D174C (Alexa488/Cy5); assay type: binding; conditions: no ligand
T4 construct: 6xHis (N, cleaved yes); made in house; host or cells: Escherichia coli BL21 (DE3)
Method: as §1, §2, §3

For B1, the “stoichiometry N” value [1] was 2 and the “stoichiometry N” value [2] was about 2.

In the case of B2, the “stoichiometry N” value [3] is reported as 2.

For B3, the “stoichiometry N” value [4] was 2.

With B4 the “stoichiometry N” value [4] was 2.

Work on B5 yielded a Kd [5] of 41.5 ± 5.8 nM and a Kd [6] of 22.9 ± 0.5 nM.

In the case of B6, the Kd [7] is reported as 1260 ± 218 nM and the Kd [8] is reported as 1650 ± 44.6 nM.

B7 was tested, and the “FRET efficiency centre of high-FRET species (state 2)” value [9] was about 62%, the “FRET efficiency centre of low-FRET species (state 1)” value [9] was “about 30%” and the “population of high-FRET species (Phigh, state 2)” value [9] was ~ 42%. The “population of low-FRET species (Plow, state 1)” value [9] was ~ 58%, the “FRET efficiency centre of high-FRET species (state 1)” value [10] was about 63% and the “FRET efficiency centre of low-FRET species (state 2)” value [10] was “about 35%”. For the same molecule, the “population of high-FRET species (state 1)” value [10] was ~ 61% and the “population of low-FRET species (state 2)” value [10] was ~ 39%.
